Results on one molecule are retold here after patent publication US20260132208A1 (DOMAIN THERAPEUTICS, published 2026).

The target in experiment [1] is T1, pwt1 (none (unmodified peptide)).
T1 construct: also called unmodified CCR8 N-terminal peptide
The experiment can be described thus: ELISA on coated peptide [cont.]. In short, it runs like this:
(§1)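 Each antibody is tested at 1 μg/mL plus a 1/10 dilution against peptide coated at 500 ng/ml in carbonate/bicarbonate buffer. Binding runs 90 min at room temperature. After washing, TMB substrate is added for 15 min and OD gives the signal.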

The target in experiment [2] is T2, pm2 (sulfated tyrosine(s) among Y15, Y16, Y17; which ones is not told (the underlining of Table 1 is lost in the text)).
T2 construct: also called sulfated CCR8 N-terminal peptide pm2
Description: ELISA on coated peptide [cont.]. In short, it runs like this: as §1
A general note: ELISA stands for enzyme-linked immunosorbent assay.

T2 sequence (peptide, as listed by the source): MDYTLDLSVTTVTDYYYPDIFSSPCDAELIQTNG
T1 sequence (peptide, as listed by the source): as above

B1: anti-CCR8 mAb 1-20 (antibody, human IgG1, kappa)
heavy: not shown
light: DIVMTQAAPSLSVTPGESASISCTSSKSLLHSNGNTYLYWFLQKPGQSPQLLIYRMSNLASGVPDRFSGSGSGTAFTLKISRVEAEDVGVYYCMQHREYPFTFGSGTKLEIKRTVAAPSVFIFPPSDEQLKSGTASVVCLLNNFYPREAKVQWKVDNALQSGNSQESVTEQDSKDSTYSLSSTLTLSKADYEKHKVYACEVTHQGLSSPVTKSFNRGEC
notes: Humanized mAb, human IgG1 / kappa
As to B1, the binding result in experiment [1] and in experiment [2] was “binds” throughout.
